# Laboratory results from the supplement of paper PMC5998384.
# Key:
# [1] = test system: HeLa Kyoto; assay: solubility in G1/S (NP-40 vs SDS abundance) (log2 ratio); higher = more soluble; settings: cell cycle stage: G1/S
# [2] = test system: HeLa Kyoto; assay: solubility change mitosis vs G1/S (difference of NP-40 vs SDS log2 ratios) (log2 ratio difference); higher = more soluble in mitosis
# 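Wherever solubility change mitosis vs G1/S (difference of NP-40 vs SDS log2 ratios) is given: synchronized HeLa Kyoto cells (double thymidine block for G1/S, nocodazole release for mitosis), protein amounts in NP-40 versus SDS lysates quantified by mass spectrometry, three biological replicates.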
# 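Wherever solubility in G1/S (NP-40 vs SDS abundance) is given: HeLa Kyoto cells arrested at G1/S by double thymidine block, proteins quantified by TMT10plex mass spectrometry in mild NP-40 versus SDS extracts, three biological replicates.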
Sequence,solubility in G1/S (log2) [1],solubility change mitosis (log2) [2]
MAVWIQAQQLQGEALHQMQALYGQHFPIEVRHYLSQWIESQAWDSVDLDNPQENIKATQLLEGLVQELQKKAEHQVGEDGFLLKIKLGHYATQLQNTYDRCPMELVRCIRHILYNEQRLVREANNGSSPAGSLADAMSQKHLQINQTFEELRLVTQDTENELKKLQQTQEYFIIQYQESLRIQAQFGPLAQLSPQERLSRETALQQKQVSLEAWLQREAQTLQQYRVELAEKHQKTLQLLRKQQTIILDDELIQWKRRQQLAGNGGPPEGSLDVLQSWCEKLAEIIWQNRQQIRRAEHLCQQLPIPGPVEEMLAEVNATITDIISALVTSTFIIEKQPPQVLKTQTKFAATVRLLVGGKLNVHMNPPQVKATIISEQQAKSLLKNENTRNDYSGEILNNCCVMEYHQATGTLSAHFRNMSLKRIKRSDRRGAESVTEEKFTILFESQFSVGGNELVFQVKTLSLPVVVIVHGSQDNNATATVLWDNAFAEPGRVPFAVPDKVLWPQLCEALNMKFKAEVQSNRGLTKENLVFLAQKLFNNSSSHLEDYSGLSVSWSQFNRENLPGRNYTFWQWFDGVMEVLKKHLKPHWNDGAILGFVNKQQAHDLLINKPDGTFLLRFSDSEIGGITIAWKFDSQERMFWNLMPFTTRDFSIRSLADRLGDLNYLIYVFPDRPKDEVYSKYYTPVPCESATAKAVDGYVKPQIKQVVPEFVNASADAGGGSATYMDQAPSPAVCPQAHYNMYPQNPDSVLDTDGDFDLEDTMDVARRVEELLGRPMDSQWIPHAQS [STAT5B],-0.0111,-0.309
MAWWKAWIEQEGVTVKSSSHFNPDPDAETLYKAMKGIGTNEQAIIDVLTKRSNTQRQQIAKSFKAQFGKDLTETLKSELSGKFERLIVALMYPPYRYEAKELHDAMKGLGTKEGVIIEILASRTKNQLREIMKAYEEDYGSSLEEDIQADTSGYLERILVCLLQGSRDDVSSFVDPALALQDAQDLYAAGEKIRGTDEMKFITILCTRSATHLLRVFEEYEKIANKSIEDSIKSETHGSLEEAMLTVVKCTQNLHSYFAERLYYAMKGAGTRDGTLIRNIVSRSEIDLNLIKCHFKKMYGKTLSSMIMEDTSGDYKNALLSLVGSDP [ANXA8L1],0.415,-0.077
MCARMAGRTTAAPRGPYGPWLCLLVALALDVVRVDCGQAPLDPVYLPAALELLDAPEHFRVQQVGHYPPANSSLSSRSETFLLLQPWPRAQPLLRASYPPFATQQVVPPRVTEPHQRPVPWDVRAVSVEAAVTPAEPYARVLFHLKGQDWPPGSGSLPCARLHATHPAGTAHQACRFQPSLGACVVELELPSHWFSQASTTRAELAYTLEPAAEGPGGCGSGEENDPGEQALPVGGVELRPADPPQYQEVPLDEAVTLRVPDMPVRPGQLFSATLLLRHNFTASLLTLRIKVKKGLHVTAARPAQPTLWTAKLDRFKGSRHHTTLITCHRAGLTEPDSSPLELSEFLWVDFVVENSTGGGVAVTRPVTWQLEYPGQAPEAEKDKMVWEILVSERDIRALIPLAKAEELVNTAPLTGVPQHVPVRLVTVDGGGALVEVTEHVGCESANTQVLQVSEACDAVFVAGKESRGARGVRVDFWWRRLRASLRLTVWAPLLPLRIELTDTTLEQVRGWRVPGPAEGPAEPAAEASDEAERRARGCHLQYQRAGVRFLAPFAAHPLDGGRRLTHLLGPDWLLDVSHLVAPHARVLDSRVASLEGGRVVVGREPGVTSIEVRSPLSDSILGEQALAVTDDKVSVLELRVQPVMGISLTLSRGTAHPGEVTATCWAQSALPAPKQEVALSLWLSFSDHTVAPAELYDRRDLGLSVSAEEPGAILPAEEQGAQLGVVVSGAGAEGLPLHVALHPPEPCRRGRHRVPLASGTAWLGLPPASTPAPALPSSPAWSPPATEATMGGKRQVAGSVGGNTGVRGKFERAEEEARKEETEAREEEEEEEEEMVPAPQHVTELELGMYALLGVFCVAIFIFLVNGVVFVLRYQRKEPPDSATDPTSPQPHNWVWLGTDQEELSRQLDRQSPGPPKGEGSCPCESGGGGEAPTLAPGPPGGTTSSSSTLARKEAGGRRKRVEFVTFAPAPPAQSPEEPVGAPAVQSILVAGEEDIRWVCEDMGLKDPEELRNYMERIRGSS [TMEM132A],-0.00491,-0.0467
MCDQQKQPQFPPSCVKGSGLGAGQGSNGASVKCPVPCQTQTVCVTGPAPCPTQTYVKYQVPCQTQTYVKCPAPCQRTYVKYPTPCQTYVKCPAPCQTTYVKCPTPCQTYVKCPAPCQMTYIKSPAPCQTQTCYVQGASPCQSYYVQAPASGSTSQYCVTDPCSAPCSTSYCCLAPRTFGVSPLRRWIQRPQNCNTGSSGCCENSGSSGCCGSGGCGCSCGCGSSGCCCLGIIPMRSRGPACCDHEDDCCC [XP32],-1.33,1.06
